Results published in FireProtDB (doi:10.1006/jmbi.1995.0616).

B1: Subtilisin-chymotrypsin inhibitor-2A, P01053 (parent)
chain: MSSVEKKPEGVNTGAGDRHNLKTEWPELVGKSVEEAKKVILQDKPEAQIIVLPVGTIVTMEYRIDRVRLFVDKLDNIAQVPRVG

Variants of: B1
Details: Hordeum vulgare; pH 6.25; 25 °C; GdnHCl; Fluorescence; MES 50 mM; reversible: yes; structure 2CI2; whole UniProt chain shown

Variant	ddG of mutation (higher = less stable) [kcal/mol]	denaturant m value [kcal/mol/M]	denaturant midpoint (higher = more stable) [M]	unfolding free energy [kcal/mol]
D43A	1.05	1.87	3.51	6.55
V58A F70L	2.2	2.02	2.67	5.4
A36G	1.41	1.8	3.44	6.19
L52A V58A F70L	3.34	1.93	2.21	4.26
L52V	1.02	1.76	3.74	6.58
L52I	1.01	1.7	3.87	6.59
L52A	1.74	2.11	2.78	5.86
F70V	1.41	2.24	2.77	6.19
F70A	3.21	2.17	2.02	4.39
F70L	1.92	1.95	2.91	5.68
S32A E34A E35A	0.75	2.18	3.14	6.85
V39A	0.06	2.01	3.75	7.54
P45A	1.22	2.07	3.09	6.38
E46A	0.78	1.78	3.83	6.82
L41A	1.21	1.93	3.32	6.39
L41G	2.09	1.68	3.29	5.51
K22A E27A	1.17	1.87	3.43	6.43
V58A V80A	3.78	2.19	1.75	3.82
L52V F70A	3.26	1.94	2.24	4.34
L52V F70L	1.08	2.37	2.75	6.52
V58A	0.67	2.14	3.24	6.93

Variant	ddG of mutation (higher = less stable) [kcal/mol]	denaturant m value [kcal/mol/M]	denaturant midpoint (higher = more stable) [M]	unfolding free energy [kcal/mol]
K44A	1.85	1.57	3.67	5.75
P26A		3.46	3.19	
P26A A36G	1.3	2.39	2.64	6.3
Q42A	0.54	1.77	3.99	7.06
Q42G	0.92	1.81	3.69	6.68
L52A V58A	2.95	1.96	2.37	4.65
P81A	3.5	1.8	2.28	4.1
E35D	-0.36	2.2	3.62	7.96
E35N	0.08	2.18	3.45	7.52
E35Q	0.68	1.84	3.76	6.92
K37A	1.13	1.73	3.75	6.47
K37G	2.01	1.99	2.8	5.59
K22A	1.04	1.77	3.72	6.56
I40V	0.97	1.99	3.33	6.63
E34N	0.28	2.01	3.64	7.32
E34Q	0.4	1.87	3.85	7.2
E34D	0.77	1.83	3.73	6.83
E34A E35A	-0.02	2.11	3.61	7.62
S32A	1.02	1.86	3.54	6.58
S32G	0.06	2.1	3.59	7.54
K38G	1.58	1.73	3.49	6.02

Variant	ddG of mutation (higher = less stable) [kcal/mol]	denaturant m value [kcal/mol/M]	denaturant midpoint (higher = more stable) [M]	unfolding free energy [kcal/mol]
K38A	0.99	1.61	4.11	6.61
L52V V58A F70L	2.84	1.83	2.6	4.76
L52V V58A	1.93	1.86	3.05	5.67
K73N	1.21	1.6	4	6.39
I57A	1.28	1.59	3.98	6.32
Q48M M60L	0.18	1.78	4.16	7.42
L52A F70A	5.16	1.59	1.53	2.44
L52A F70L	3.25	1.94	2.24	4.35
E61A	1.12	1.78	3.64	6.48
D65A	1.02	1.83	3.59	6.58
E27Q	0.57	1.91	3.68	7.03
E27A	1.03	1.75	3.76	6.57
K31A	1.2	1.52	4.22	6.4
D72A	3.14	1.99	2.24	4.46
P53A	0.58	1.79	3.91	7.02
R63A D65A	2.46	1.53	3.37	5.14
T56V	1.57	1.67	3.61	6.03
T56A	1.42	1.5	4.12	6.18
T56S	0.98	1.66	3.99	6.62
S32G E34A E35A	0.81	2.15	3.16	6.79
R63A	1.02	1.78	3.7	6.58
